Measured values published in US20210198647A1, “Enhancers of Neurolysin Activity” (Texas Tech University System, priority 2018, published 2021).

Legend:
[1] = biological target: N-terminal polyhistidine tagged recombinant rat neurolysin (rat) (UniProt P42676); experiment: cell-based or functional assay
[2] = biological target: mouse plasma proteins; experiment: rapid equilibrium dialysis (RED), mouse plasma, 500 ng/mL

Substance	formation of angiotensin-(1-7) from angiotensin I (20 µM), mass spectrometry, 100 µM modulator [1] [fold]	formation of bradykinin-(1-5) from bradykinin (20 µM), mass spectrometry, 100 µM modulator [1] [fold]	formation of neurotensin-(1-10) from neurotensin (20 µM), mass spectrometry, 100 µM modulator [1] [fold]	fu in Plasma (fraction unbound) [2]
NlnA#2, NSC 523374, D,L-histidyl-D,L-histidine (peptide)	6	2	3	–
His-Trp (peptide)	–	–	–	0.93
NlnA#1, NSC 374121, L-histidyl-L-tyrosine (peptide)	6	2	3	0.66
